Measured values: patent publication US20160024487

Columns and labels:
[1] = target: T1, Lys(Dnp)-ATNATATPRIVGG-Lys(Abz)
T1 chain: KATNATATPRIVGGK

[2] = target: T2, Lys(Dnp)-ATNATFQPRIVGG-Lys(Abz)
T2 chain: KATNATFQPRIVGGK

[3] = target: T3, Lys(Dnp)-ATNATFRPRIVGG-Lys(Abz)
T3 chain: KATNATFRPRIVGGK

[4] = target: T4, Lys(Dnp)-ATNATLTPRIVGG-Lys(Abz)
T4 chain: KATNATLTPRIVGGK

[5] = target: T5, Lys(Dnp)-ATNATPYPRIVGG-Lys(Abz)
T5 chain: KATNATPYPRIVGGK

[6] = target: T6, Lys(Dnp)-ATNATVFPRIVGG-Lys(Abz)
T6 chain: KATNATVFPRIVGGK

[7] = target: T7, Lys(Dnp)-ATNATVKPRIVGG-Lys(Abz)
T7 chain: KATNATVKPRIVGGK

[8] = target: T8, Lys(Dnp)-ATNATVWPRIVGG-Lys(Abz)
T8 chain: KATNATVWPRIVGGK

[9] = target: T9, Lys(Dnp)-ATNATYKPRIVGG-Lys(Abz)
T9 chain: KATNATYKPRIVGGK

[10] = target: T10, Lys(Dnp)-ATNATALPRIVGG-Lys(Abz)
T10 chain: KATNATALPRIVGGK

[11] = target: T11, Lys(Dnp)-ATNATANPRIVGG-Lys(Abz)
T11 chain: KATNATANPRIVGGK

[12] = target: T12, Lys(Dnp)-ATNATEGPRIVGG-Lys(Abz)
T12 chain: KATNATEGPRIVGGK

[13] = target: T13, Lys(Dnp)-ATNATEIPRIVGG-Lys(Abz)
T13 chain: KATNATEIPRIVGGK

[14] = target: T14, Lys(Dnp)-ATNATESPRIVGG-Lys(Abz)
T14 chain: KATNATESPRIVGGK

[15] = target: T15, Lys(Dnp)-ATNATEYPRIVGG-Lys(Abz)
T15 chain: KATNATEYPRIVGGK

[16] = target: T16, Lys(Dnp)-ATNATFAPRIVGG-Lys(Abz)
T16 chain: KATNATFAPRIVGGK

[17] = target: T17, Lys(Dnp)-ATNATFNPRIVGG-Lys(Abz)
T17 chain: KATNATFNPRIVGGK

[18] = target: T18, Lys(Dnp)-ATNATFPPRIVGG-Lys(Abz)
T18 chain: KATNATFPPRIVGGK

[19] = target: T19, Lys(Dnp)-ATNATIAPRIVGG-Lys(Abz)
T19 chain: KATNATIAPRIVGGK

[20] = target: T20, Lys(Dnp)-ATNATKEPRIVGG-Lys(Abz)
T20 chain: KATNATKEPRIVGGK

[21] = target: T21, Lys(Dnp)-ATNATLDPRIVGG-Lys(Abz)
T21 chain: KATNATLDPRIVGGK

[22] = target: T22, Lys(Dnp)-ATNATMAPRIVGG-Lys(Abz)
T22 chain: KATNATMAPRIVGGK

[23] = target: T23, Lys(Dnp)-ATNATMSPRIVGG-Lys(Abz)
T23 chain: KATNATMSPRIVGGK

[24] = target: T24, Lys(Dnp)-ATNATPIPRIVGG-Lys(Abz)
T24 chain: KATNATPIPRIVGGK

[25] = target: T25, Lys(Dnp)-ATNATQDPRIVGG-Lys(Abz)
T25 chain: KATNATQDPRIVGGK

[26] = target: T26, Lys(Dnp)-ATNATQGPRIVGG-Lys(Abz)
T26 chain: KATNATQGPRIVGGK

[27] = target: T27, Lys(Dnp)-ATNATQHPRIVGG-Lys(Abz)
T27 chain: KATNATQHPRIVGGK

[28] = target: T28, Lys(Dnp)-ATNATQKPRIVGG-Lys(Abz)
T28 chain: KATNATQKPRIVGGK

[29] = target: T29, Lys(Dnp)-ATNATRAPRIVGG-Lys(Abz)
T29 chain: KATNATRAPRIVGGK

[30] = target: T30, Lys(Dnp)-ATNATRFPRIVGG-Lys(Abz)
T30 chain: KATNATRFPRIVGGK

[31] = target: T31, Lys(Dnp)-ATNATRGPRIVGG-Lys(Abz)
T31 chain: KATNATRGPRIVGGK

[32] = target: T32, Lys(Dnp)-ATNATSYPRIVGG-Lys(Abz)
T32 chain: KATNATSYPRIVGGK

[33] = target: T33, Lys(Dnp)-ATNATTHPRIVGG-Lys(Abz)
T33 chain: KATNATTHPRIVGGK

[34] = target: T34, Lys(Dnp)-ATNATVEPRIVGG-Lys(Abz)
T34 chain: KATNATVEPRIVGGK

[35] = target: T35, Lys(Dnp)-ATNATVPPRIVGG-Lys(Abz)
T35 chain: KATNATVPPRIVGGK

[36] = target: T36, Lys(Dnp)-ATNATWEPRIVGG-Lys(Abz)
T36 chain: KATNATWEPRIVGGK

[37] = target: T37, Lys(Dnp)-ATNATWYPRIVGG-Lys(Abz)
T37 chain: KATNATWYPRIVGGK

[38] = target: T38, Lys(Dnp)-ATNATYAPRIVGG-Lys(Abz)
T38 chain: KATNATYAPRIVGGK

[39] = target: T39, Lys(Dnp)-ATNATYFPRIVGG-Lys(Abz)
T39 chain: KATNATYFPRIVGGK

[40] = target: T40, Lys(Dnp)-ATNATYPPRIVGG-Lys(Abz)
T40 chain: KATNATYPPRIVGGK

[41] = target: T41, Lys(Dnp)-ATNATYYPRIVGG-Lys(Abz)
T41 chain: KATNATYYPRIVGGK

B1: Human plasma purified Factor Xa (protein)
chain 1: ANSFLEEMKKGHLERECMEETCSYEEAREVFEDSDKTNEFWNKYKDGDQCETSPCQNQGKCKDGLGEYTCTCLEGFEGKNCELFTRKLCSLDNGDCDQFCHEEQNSVVCSCARGYTLADNGKACIPTGPYPCGKQTLER
chain 2: IVGGQECKDGECPWQALLINEENEGFCGGTILSEFYILTAAHCLYQAKRFKVRVGDRNTEQEEGGEAVHEVEVVIKHNRFTKETYDFDIAVLRLKTPITFRMNVAPACLPERDWAESTLMTQKTGIVSGFGRTHEKGRQSTRLKMLEVPYVDRNSCKLSSSFIITQNMFCAGYDTKQEDACQGDSGGPHVTRFKDTYFVTGIVSWGEGCARKGKYGIYTKVTAFLKWIDRSMKTRGLPKAKSHAPEVITSSPLK
FXa kcat/KM [1]: 330 M⁻¹ s⁻¹ | FXa kcat/KM [2]: 260 M⁻¹ s⁻¹ | FXa kcat/KM [3]: 430 M⁻¹ s⁻¹ | FXa kcat/KM [4]: 540 M⁻¹ s⁻¹ | FXa kcat/KM [5]: 83 M⁻¹ s⁻¹ | FXa kcat/KM [6]: 54 M⁻¹ s⁻¹ | FXa kcat/KM [7]: 38 M⁻¹ s⁻¹ | FXa kcat/KM [8]: 190 M⁻¹ s⁻¹ | FXa kcat/KM [9]: 25 M⁻¹ s⁻¹

B2: Human plasma purified Factor Xa (Molecular Innovations, Inc) (protein)
chain 1: ANSFLEEMKKGHLERECMEETCSYEEAREVFEDSDKTNEFWNKYKDGDQCETSPCQNQGKCKDGLGEYTCTCLEGFEGKNCELFTRKLCSLDNGDCDQFCHEEQNSVVCSCARGYTLADNGKACIPTGPYPCGKQTLER
chain 2: IVGGQECKDGECPWQALLINEENEGFCGGTILSEFYILTAAHCLYQAKRFKVRVGDRNTEQEEGGEAVHEVEVVIKHNRFTKETYDFDIAVLRLKTPITFRMNVAPACLPERDWAESTLMTQKTGIVSGFGRTHEKGRQSTRLKMLEVPYVDRNSCKLSSSFIITQNMFCAGYDTKQEDACQGDSGGPHVTRFKDTYFVTGIVSWGEGCARKGKYGIYTKVTAFLKWIDRSMKTRGLPKAKSHAPEVITSSPLK
FXa kcat/KM [10]: 300 M⁻¹ s⁻¹ | FXa kcat/KM [11]: 78 M⁻¹ s⁻¹ | FXa kcat/KM [12]: 18 M⁻¹ s⁻¹ | FXa kcat/KM [13]: 55 M⁻¹ s⁻¹ | FXa kcat/KM [14]: 5.3 M⁻¹ s⁻¹ | FXa kcat/KM [15]: 15 M⁻¹ s⁻¹ | FXa kcat/KM [16]: 130 M⁻¹ s⁻¹ | FXa kcat/KM [17]: 200 M⁻¹ s⁻¹ | FXa kcat/KM [18]: 6.2 M⁻¹ s⁻¹ | FXa kcat/KM [19]: 650 M⁻¹ s⁻¹ | FXa kcat/KM [20]: 62 M⁻¹ s⁻¹ | FXa kcat/KM [21]: 1000 M⁻¹ s⁻¹ | FXa kcat/KM [22]: 360 M⁻¹ s⁻¹ | FXa kcat/KM [23]: 570 M⁻¹ s⁻¹ | FXa kcat/KM [24]: 590 M⁻¹ s⁻¹ | FXa kcat/KM [25]: 680 M⁻¹ s⁻¹ | FXa kcat/KM [26]: 140 M⁻¹ s⁻¹ | FXa kcat/KM [27]: 550 M⁻¹ s⁻¹ | FXa kcat/KM [28]: 49 M⁻¹ s⁻¹ | FXa kcat/KM [29]: 2000 M⁻¹ s⁻¹ | FXa kcat/KM [30]: 730 M⁻¹ s⁻¹ | FXa kcat/KM [31]: 680 M⁻¹ s⁻¹ | FXa kcat/KM [32]: 13 M⁻¹ s⁻¹ | FXa kcat/KM [33]: 14 M⁻¹ s⁻¹ | FXa kcat/KM [34]: 110 M⁻¹ s⁻¹ | FXa kcat/KM [35]: 6.3 M⁻¹ s⁻¹ | FXa kcat/KM [36]: 24 M⁻¹ s⁻¹ | FXa kcat/KM [37]: 60 M⁻¹ s⁻¹ | FXa kcat/KM [38]: 49 M⁻¹ s⁻¹ | FXa kcat/KM [39]: 34 M⁻¹ s⁻¹ | FXa kcat/KM [40]: 20 M⁻¹ s⁻¹ | FXa kcat/KM [41]: 48 M⁻¹ s⁻¹
